According to PMC8049259, “Structure of the E. coli agmatinase, SPEB” (PLoS ONE, 2021):

Target: the molecule itself
Assay: SEC; Superdex 200 10/300 GL, 30 mM Tris pH 7.0, 50 mM sodium chloride; oligomeric state judged from the elution profile

B1: E. coli agmatine ureohydrolase (agmatinase, SPEB) (enzyme, UniProt P60651 1-306, looked up)
chain: MSTLGHQYDNSLVSNAFGFLRLPMNFQPYDSDADWVITGVPFDMATSGRAGGRHGPAAIRQVSTNLAWEHNRFPWNFDMRERLNVVDCGDLVYAFGDAREMSEKLQAHAEKLLAAGKRMLSFGGDHFVTLPLLRAHAKHFGKMALVHFDAHTDTYANGCEFDHGTMFYTAPKEGLIDPNHSVQIGIRTEFDKDNGFTVLDACQVNDRSVDDVIAQVKQIVGDMPVYLTFDIDCLDPAFAPGTGTPVIGGLTSDRAIKLVRGLKDLNIVGMDVVEVAPAYDQSEITALAAATLALEMLYIQAAKKGE
notes: E. coli agmatinase SPEB, UniProt P60651, a 306 residue protein; cloned in pTHT (a pET-28 variant with a TEV protease site in place of the thrombin site); Two Mn2+ ions were modelled in each active site; also called agmatine amidinohydrolase; SPEB-THT (plasmid); source: E. coli BL21(DE3), purified (Ni-NTA, size exclusion chromatography)
**Q.** For B1, which “stoichiometry N” value is on record?
**A.** The value was 6.
